Test results as given in US20240254220A1, “COMBINED THERAPY USING ANTI-CD300C ANTIBODY” (CentricsBio, Inc., priority 2021, published 2024).

Key:
[1] = system: colon cancer cell line (CT26) tumor; assay: Tumor-infiltrating lymphocytes and macrophages in CT26 cancer tissue after combined use; assay type: in vivo, BALB/c mice
Text: In order to identify effects of the anti-CD300c monoclonal antibody on tumor-infiltrating lymphocytes (TIL) in a tumor microenvironment (TME), on day 25 of an experiment conducted by the same method as in Experimental Example 7.1, the mice were euthanized, and injected intravascularly with 1% paraformaldehyde (PFA) to perform perfusion, and then the cancer tissue was obtained. The obtained cancer tissue was fixed using 1% PFA, and sequentially dehydrated using 10%, 20%, and 30% sucrose solutions. The dehydrated cancer tissue was frozen in OCT compound (optimal cutting temperature compound), and then the cancer tissue was sectioned to a thickness of 50 μm using a cryotome. The tissue was incubated at 37° C. for 1 hour in a mixed solution of collagenase D (20 mg/mL) and DNase I (2 mg/mL). Thereafter, the resultant product was filtered through a 70 μm cell strainer, followed by the lysis of red blood cells, and then again filtered through a nylon mesh for making single cells. To suppress non-specific reactions in the single cell suspension, the cells were incubated with a CD16/32 antibody (Invitrogen) for 1 hour, and then cell viability was identified, and CD8+ T cells and CD31+ cancer blood vessel cells, which are tumor-infiltrating lymphocyte markers, were stained.
In order to identify whether the anti-CD300c monoclonal antibody increases M1 macrophages in the cancer tissue of mouse models, the cancer tissue sections prepared by the same method as in Experimental Example 7.2 were stained with antibodies to the M1 macrophage marker iNOS and the M2 macrophage marker CD206, and analyzed by FACS.
In order to identify whether the anti-CD300c monoclonal antibody CL7 promotes CD8+ T cell immunity in mouse tumor models, on day 25 of the experiment conducted by the same method as in Experimental Example 7.1, the mice were euthanized, and injected intravascularly with 1% paraformaldehyde (PFA) to perform perfusion, and then the cancer tissue was obtained. The obtained cancer tissue was fixed using 1% PFA, and sequentially dehydrated using 10%, 20%, and 30% sucrose solutions. […]

[2] = system: colon cancer cell line (CT26) tumor; assay: Tumor immune cell FACS analysis in CT26 syngeneic mouse tumor model; assay type: in vivo, BALB/c mice
Text: In order to identify effects of the anti-CD300c monoclonal antibody CL7 on tumor-associated macrophages under in vivo conditions, a colon cancer cell line (CT26) at 2×10^5 cells was transplanted by subcutaneous injection into 8-week-old BALB/c mice to prepare syngeneic mouse tumor models. Animal breeding and experiments were all conducted in a specific pathogen free (SPF) facility. In addition, 12 days after transplantation of the colon cancer cell line, the mice with a tumor size of 50 mm^3 to 100 mm^3 were separately administered the anti-CD300c monoclonal antibody, and for a control group, the mice were injected with the same amount of phosphate buffered saline (PBS). The mice were intraperitoneally injected with 25 mg/kg of each substance twice a week for two weeks over a total of 4 times. On day 25 after the injection, the mice were sacrificed, and the tumor tissue was collected from each of six mice in the CL7 25 mg/kg administration group showing a highest antitumor effect compared with the control group. The tumor tissue was taken out and then incubated at 37° C. for 1 hour in a mixed solution of collagenase D (20 mg/mL) and DNase I (2 mg/mL). Thereafter, the resultant product was filtered through a 70 μm cell strainer, followed by the lysis of red blood cells, and then again filtered through a nylon mesh. Subsequently, the single cell suspension was blocked with CD16/32 antibody (from Invitrogen), and the cells were stained with a staining solution for checking cell viability (from Invitrogen), and antibodies (from Abcam) to the total macrophage marker F4/80 and the M1 macrophage marker iNOS. Then, the data were read with CytoFLEX flow cytometer and analyzed with FlowJo software.
In order to identify effects of the anti-CD300c monoclonal antibody CL7 on CD8+ T cells under in vivo conditions, syngeneic mouse tumor models were prepared as in Experimental Example 3.2 and administered the anti-CD300c monoclonal antibody at the same concentration.
(§1) On day 25 after the injection, the mice were sacrificed, and the tumor tissue was collected from each of six mice in the CL7 25 mg/kg administration group showing a highest antitumor effect compared with the control group. The tumor tissue was taken out and then incubated at 37° C. for 1 hour in a mixed solution of collagenase D (20 mg/mL) and DNase I (2 mg/mL). Thereafter, the resultant product was filtered through a 70 μm cell strainer, followed by the lysis of red blood cells, and then again filtered through a nylon mesh. Subsequently, the single cell suspension was blocked with CD16/32 antibody (from Invitrogen), and the cells were stained with a staining solution for checking cell viability and a CD8+ antibody (from Abcam) and a CD4+ antibody (from Abcam). Thereafter, the data were read with CytoFLEX flow cytometer and analyzed with FlowJo software.
as §1, with “In order to identify whether the anti-CD300c monoclonal antibody CL7 increases the number of CD8+ T cells in a tumor-specific manner, syngeneic mouse tumor models were prepared as in Experimental Example 3.2 and administered the anti-CD300c monoclonal antibody at the same concentration. On” for “On”, “AH1 tetramer” for “a CD8+ antibody (from Abcam) and a CD4+”, “software. […]” for “software.”

[3] = system: colon cancer cell line (CT26) tumor; assay: In vivo cancer growth inhibition, CT26 model, CL7 dose range; design: species or system BALB/c mice; details: 1, 5, 10 or 25 mg/kg i.p. on D11, D14, D18, D21; 25 days
Protocol: In order to identify anticancer effects of the anti-CD300c monoclonal antibody CL7 under in vivo conditions, a colon cancer cell line (CT26) at 2×10^5 cells was transplanted by subcutaneous injection into 8-week-old BALB/c mice to prepare syngeneic mouse tumor models. Animal breeding and experiments were all conducted in a SPF facility. On day 11 (D11) after the transplantation of the colon cancer cell line, the mice with a tumor size of 50 mm^3 to 100 mm^3 were administered the anti-CD300c monoclonal antibody 1 mg/kg, 5 mg/kg, 10 mg/kg, or 25 mg/kg, respectively, and for a control group, the mice were administered the same amount of phosphate buffered saline (PBS). Specifically, the mice were intraperitoneally injected with each dosage twice a week for two weeks (a total of 4 times on D11, D14, D18, and D21). The tumor volume was measured for 25 days.

[4] = CT26 cancer tissue, day 25, FACS
[5] = Experimental Example 3.7, 25 mg/kg i.p., day 25

B1: CL7: anti-CD300c monoclonal antibody, VH3VL1 phage library, VH SEQ ID 327, VL SEQ ID 328 (antibody, V domains shown)
VH: EVQLLESGGGLVQPGGSLRLSCAASGFTFSRYAMSWVRQAPGKGLEWVSAISGSGGSTYYADSVKGRFTISRDNSKNTLYLQMNSLRAEDTAVYYCARSSQGIFDIWGQGTLVTVSS
VL: QSVLTQPPSASGTPGQRVTISCSGNNIGTRRVHWYQQLPDTAPKLLIYSKNNRPSGVPDRFSGSKSGTSASLAISGLRSEDEADYYCAAWDDSLSGPVFGGGTKLTVL
modifications: CL7 Heavy Chain Variable Region; CL7 Light Chain Variable Region
Q: Which “M1 macrophages (iNOS) in cancer tissue” value [1, 4] does the source give for B1 here?
A: remarkably increased

Q: What about the “M2 macrophages (CD206) in cancer tissue” value [1, 4] of the same molecule?
A: hardly observed

Q: What about the “CD8+ T cells in cancer tissue” value ([1]; Experimental Example 7.4, CT26 cancer tissue sections, day 25) of the same molecule?
A: remarkably increased

Q: What about the “expression level of M1 type tumor-associated macrophages in cancer tissue” value ([2]; 25 mg/kg i.p. twice a week, 4 times, day 25, vs PBS) of the same molecule?
A: increased

Q: And the “CD8+ T cells compared with Treg T cells” value ([2]; 25 mg/kg i.p., day 25)?
A: increased

Q: What about the “expression of AH1 tetramer in CD8+ T cells” value ([2]; 25 mg/kg i.p., day 25) of the same molecule?
A: increased

Q: What about the “number of T cells in tumor” value ([2]; 25 mg/kg i.p., day 25, CD8+/CD4+ staining) of the same molecule?
A: increased

Q: And the “activated CD8+ T cells” value [2, 5]?
A: significantly increased

Q: And the “regulatory T cells” value [2, 5]?
A: inhibited

Q: And the tumor-associated macrophage phenotype [2, 5]?
A: repolarized tumor-associated macrophages towards M1 phenotype

Q: And the “growth of CT26 colon cancer (tumor volume)” value [3]?
A: delayed the growth of CT26 colon cancer in a dose-dependent manner
